# Where two headings read alike, the source gives them in different places.
# T1: SmAP1 (Sulfolobus solfataricus, UniProt Q97ZQ0 1-79)
# T1 sequence: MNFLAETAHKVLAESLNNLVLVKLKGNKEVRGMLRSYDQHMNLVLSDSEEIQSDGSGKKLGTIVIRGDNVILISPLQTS
# Experiments:
# [1] = target: T2, SmAP2 (Sulfolobus solfataricus, UniProt Q980S8 1-87); test: MST
# [2] = target: SmAP2, NT-647 labelled (Sulfolobus solfataricus, UniProt Q980S8 1-87); test: MST
# [3] = target: T2, SmAP2; test: MST; remark: listed apart in the source
# [4] = target: T1, SmAP1; test: EMSA
# [5] = target: SmAP2 T40H (Sulfolobus solfataricus, UniProt Q980S8 1-87, T40H); test: EMSA
Binder,Kd [1] [nM],Kd [2] [nM],also measured
GGAGAUAUAGUAGGAUAG (ssRNA) [2194-RBM],14.4 ± 3.3,,
GGAUGGAUAUUAGGUACUGGG (ssRNA) [1742-RBM],5.9 ± 5.5,,
GGAUGGAUAUUAGGAAAUG (ssRNA) [SmAP2-cRBM],,42.1 ± 17.8,
UUUUUUUUUUUUUUU (ssRNA) [poly(U)15],,426 ± 92,
"GGAUGGAUAUUAGGAAAUG (ssRNA) [SmAP2-cRBM, FAM]",,,Kd [3]: 32.7 ± 14.4 nM; binding result [4]: no binding; binding result [5]: no binding

# — paper PMC5587771
